Measurements reported in patent publication US8394770B2 (priority 2007, dated 2013).
Where two headings read alike, the source gives them in different places. Positions of bridges follow the written chain, without caps; N, C: chain ends. No end group written: not given here.

Legend:
[1] = electrophysiological experiments; cited from earlier work
rat brain synaptosomes = conditions: binding to rat brain synaptosomes; cited from earlier work
mice = experiment: In vivo toxicity / lethality test by injection into mice; conditions: injected, up to 10,000 microgram per 20 gram mouse weight (so in the source)
hKv1.2 [2] = molecular target: T1, hKv1.2 (Homo sapiens, UniProt P16389); experiment: Patch-clamp block of hKv1.2 channels expressed in Cos-7 cells
T1 sequence (P16389 whole entry): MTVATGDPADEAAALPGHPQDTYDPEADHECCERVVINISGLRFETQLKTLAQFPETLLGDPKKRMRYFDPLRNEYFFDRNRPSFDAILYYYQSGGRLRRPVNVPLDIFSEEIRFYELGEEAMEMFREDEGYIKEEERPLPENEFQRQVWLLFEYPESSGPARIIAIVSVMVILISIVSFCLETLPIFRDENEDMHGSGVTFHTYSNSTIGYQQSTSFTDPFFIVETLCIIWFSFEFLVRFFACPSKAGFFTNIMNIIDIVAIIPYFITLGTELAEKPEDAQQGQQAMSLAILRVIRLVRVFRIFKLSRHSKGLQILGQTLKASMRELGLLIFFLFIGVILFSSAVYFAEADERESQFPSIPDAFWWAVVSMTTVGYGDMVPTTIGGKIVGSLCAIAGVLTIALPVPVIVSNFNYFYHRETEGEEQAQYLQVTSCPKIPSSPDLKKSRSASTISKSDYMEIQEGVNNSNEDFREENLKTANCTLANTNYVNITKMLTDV

hIKCa1 = hIKCa1 (Homo sapiens, UniProt O15554); experiment: Patch-clamp block of recombinant hIKCa1 channels expressed in Cos-7 cells (voltage ramps); conditions: 10 nM
Sequence of hIKCa1 (O15554 whole entry): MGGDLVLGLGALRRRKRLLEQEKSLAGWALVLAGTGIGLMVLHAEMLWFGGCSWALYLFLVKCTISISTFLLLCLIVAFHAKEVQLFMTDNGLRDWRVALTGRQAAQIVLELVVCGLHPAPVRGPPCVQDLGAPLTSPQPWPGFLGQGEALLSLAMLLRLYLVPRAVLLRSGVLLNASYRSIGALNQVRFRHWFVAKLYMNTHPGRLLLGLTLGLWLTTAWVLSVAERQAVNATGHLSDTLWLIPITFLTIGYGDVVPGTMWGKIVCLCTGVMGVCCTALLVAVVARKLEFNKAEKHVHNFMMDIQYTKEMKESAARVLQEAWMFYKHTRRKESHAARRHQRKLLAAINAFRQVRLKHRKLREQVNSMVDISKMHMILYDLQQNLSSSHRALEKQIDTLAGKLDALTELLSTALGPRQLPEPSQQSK
Protocol: The current carried by IKCa1 channels can be measured using a pipette filling solution having 1 μM free Ca^2+ concentration, which is sufficient to fully activate these channels [Grissmer et al., 1993].
Cos-7 cells were maintained in standard cell culturing conditions [Bagdany at al, 2005]. […] The normal extracellular solution is the same as described above. […] This solution contained 1 μM free Ca^2+ concentration to fully activate the hIKCa1 current. All other recording conditions (data acquisition, perfusion etc.) were identical to the description above for Kv1.3 channels.
Two hundred millisecond-long voltage ramps from −120 mV to +50 mV from a holding potential of −120 mV were used to elicit hIKCa1 currents in Cos-7 cells (ramp speed 0.85 mV/ms). Voltage ramps were run every 10 s. […] The reversal potential of the current is −75 mV, which is characteristic to a K^+ conductance based on the ionic composition of the recording solutions. For IKCa1 currents the slope (s) of the linear current-voltage relationship can be used to characterize the current block [Grissmer et al., 1993]. […] Error bars indicate SEM for n=3 independent experiments.

mKv1.1 = mKv1.1 (Mus musculus, UniProt P16388); experiment: Patch-clamp block of mKv1.1 channels stably expressed in L929 cells; conditions: 10 nM
Sequence of mKv1.1 (P16388 whole entry): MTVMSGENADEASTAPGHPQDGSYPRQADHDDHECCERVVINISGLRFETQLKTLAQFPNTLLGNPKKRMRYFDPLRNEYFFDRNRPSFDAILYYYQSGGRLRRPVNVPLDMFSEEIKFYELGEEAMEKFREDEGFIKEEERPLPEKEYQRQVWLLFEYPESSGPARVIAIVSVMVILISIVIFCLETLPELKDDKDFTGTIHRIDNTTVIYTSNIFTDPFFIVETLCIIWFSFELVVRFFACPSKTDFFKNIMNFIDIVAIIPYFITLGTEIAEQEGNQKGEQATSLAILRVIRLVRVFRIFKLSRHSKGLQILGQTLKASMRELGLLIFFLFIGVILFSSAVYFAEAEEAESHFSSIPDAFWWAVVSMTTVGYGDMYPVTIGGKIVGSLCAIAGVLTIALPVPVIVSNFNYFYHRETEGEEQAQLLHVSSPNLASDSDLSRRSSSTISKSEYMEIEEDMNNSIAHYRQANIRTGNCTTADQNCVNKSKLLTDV

hKv1.3 channels [3] = molecular target: T2, hKv1.3 channels (Homo sapiens, UniProt P22001); experiment: Whole-cell patch-clamp block of hKv1.3 channels endogenously expressed in human peripheral blood T cells; assay type: cell-based; parameters: channels expressed endogenously in human peripheral blood T cells; endogenous in cells; host or cells: human peripheral blood T lymphocytes from healthy volunteers, PHA-stimulated
T2 sequence (P22001 whole entry): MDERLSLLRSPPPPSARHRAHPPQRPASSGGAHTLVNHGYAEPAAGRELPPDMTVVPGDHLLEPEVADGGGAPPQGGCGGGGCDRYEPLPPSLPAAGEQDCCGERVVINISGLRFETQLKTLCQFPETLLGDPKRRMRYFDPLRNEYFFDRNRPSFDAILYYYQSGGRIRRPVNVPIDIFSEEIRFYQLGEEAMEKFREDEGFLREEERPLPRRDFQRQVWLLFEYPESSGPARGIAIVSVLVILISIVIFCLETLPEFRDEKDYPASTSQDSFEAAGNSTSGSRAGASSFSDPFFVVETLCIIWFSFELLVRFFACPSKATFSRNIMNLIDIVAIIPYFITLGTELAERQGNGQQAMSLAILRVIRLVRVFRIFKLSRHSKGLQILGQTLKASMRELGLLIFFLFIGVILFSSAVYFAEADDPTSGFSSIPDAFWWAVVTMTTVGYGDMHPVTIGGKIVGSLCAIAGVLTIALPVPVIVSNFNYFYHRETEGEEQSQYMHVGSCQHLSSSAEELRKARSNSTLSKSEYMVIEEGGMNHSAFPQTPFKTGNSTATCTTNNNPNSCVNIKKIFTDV

DP-BB/W rats = conditions: repeated daily administration, assayed at 110 days of age, vs vehicle; cited from earlier work
hKv1.3 channel [4] = molecular target: T3, hKv1.3 channel (human, UniProt P22001); experiment: whole-cell patch clamp; recovery of hKv1.3 current on wash-out after 3 pM Vm24
hKv1.3 channel [5] = molecular target: T3, hKv1.3 channel
hKv1.3 channel [6] = molecular target: T3, hKv1.3 channel; experiment: patch clamp on human lymphocytes (summary of the result)
mKv1.1 channel = mKv1.1 channel (Mus musculus (Mouse), UniProt P16388); experiment: ratio of Kd values from patch clamp, reference hKv1.3
hKv1.2 channel = hKv1.2 channel (human, UniProt P16389); experiment: as above
hKv1.2 [7] = molecular target: T1, hKv1.2
[8] = molecular target: mKv1.1 channel (Mus musculus (Mouse)) (UniProt P16388)
Sequence of mKv1.1 channel (Mus musculus (Mouse)) (P16388 whole entry): as the sequence (P16388 whole entry) above

hKv1.3 channels [9] = molecular target: T2, hKv1.3 channels
[10] = molecular target: hIKCa1 channel (EGFP-tagged) (human) (UniProt O15554); experiment: ratio of Kd values from patch clamp, reference hKv1.3
Sequence of hIKCa1 channel (EGFP-tagged) (human) (O15554 whole entry): as the sequence (O15554 whole entry) above

hKv1.3 channels [11] = molecular target: T2, hKv1.3 channels; remark: listed apart in the source

In the case of “HsTx1: toxin of the scorpion Heterometrus spinnifer, SEQ ID NO: 6”, the “potency of amidated form relative to free-carboxyl-terminal form” value [1] is given as 5 fold and the “activity of amidated form relative to free-carboxyl-terminal form” value (rat brain synaptosomes) is given as “up to 300 fold”.

For “Vm23: 35 amino acid peptide from V. mexicanus venom, SEQ ID NO:1, four disulfide bridges, 83% identical to Vm24 (AAAISCVGSKECLPKCKAQGCKSGKCMNKKCKCYC; not fully specified (bridges); also: four disulfide bridges (pairing not given here))”, the “toxicity in experimental animals” value (mice) was “not toxic”, the “current inhibition hKv1.2” value (hKv1.2 [2]; 10 nM) was ~9% and the “time for equilibrium block of hKv1.2 to develop” value (hKv1.2 [2]; 10 nM) was 3.5 min. The “remaining current fraction (RCF) hKv1.2” value (hKv1.2 [2]; 10 nM, n=3) was 0.91±0.02, the “reversibility of hKv1.2 block” value (hKv1.2 [2]; after 10 nM, wash-out) was “not readily reversible within 2 min” and the “block of hIKCa1” value (hIKCa1) was “practically does not block”. The “current inhibition hIKCa1” value (hIKCa1) was ~1%, the “block of mKv1.1” value (mKv1.1) was “practically does not block” and the “current inhibition mKv1.1” value (mKv1.1) was ~3%. For the same molecule, the “blockage of hKv1.3 current” value (hKv1.3 channels [3]; 10 nM) was “approximately 95%”, the “time for equilibrium block of hKv1.3 to develop” value (hKv1.3 channels [3]; 10 nM) was 3.5 min and the “block of hKv1.3 current (words)” value (hKv1.3 channels [3]; 10 nM, within 3.5 min) was “almost completely disappeared”. For the same molecule, the “relief of hKv1.3 block on wash-out” value (hKv1.3 channels [3]; after 10 nM, within 2 minutes) was “did not result in a significant relief”.

For `O=c1ccc2c(OCCCCOc3ccccc3)c3ccoc3cc2o1` [PAP-1], the “reduction of the fraction of rats showing symptoms of EAD” value (DP-BB/W rats) is given as ~50%.

For “sVm24: chemically synthesized, correctly folded Vm24; primary sequence identical to the natural peptide (AAAISCVGSPECPPKCRAQGCKNGKCMNRKCKCYYC-NH2; not fully specified (bridges); also: disulfide pairing as native peptide (not given here))”, the “block of hKv1.3 current” value (hKv1.3 channels [3]; 100 pM) was > 90%, the “block of hKv1.3 current (words)” value (hKv1.3 channels [3]; 100 pM) was “almost completely disappeared” and the “potency in blocking hKv1.3 compared with natural toxin” value (hKv1.3 channels [3]; RCF at 100 pM, t-test p=0.57) was “as potent as the natural toxin”.

B1: Vm24 (peptide)
peptide: AAAISCVGSPECPPKCRAQGCKNGKCMNRKCKCYYC-NH2
modifications: disulfide 12-31, 16-33, 21-36, 6-26; N-terminus assumed
SMILES: CC[C@H](C)[C@H](NC(=O)[C@H](C)NC(=O)[C@H](C)NC(=O)[C@H](C)N)C(=O)N[C@@H](CO)C(=O)N[C@H]1CSSC[C@@H]2NC(=O)[C@H](CCCCN)NC(=O)CNC(=O)[C@H](CC(N)=O)NC(=O)[C@H](CCCCN)NC(=O)[C@@H]3CSSC[C@@H](C(N)=O)NC(=O)[C@H](Cc4ccc(O)cc4)NC(=O)[C@H](Cc4ccc(O)cc4)NC(=O)[C@@H]4CSSC[C@H](NC(=O)[C@H](CCCCN)NC(=O)[C@@H]5CCCN5C(=O)[C@@H]5CCCN5C(=O)[C@H](CSSC[C@H](NC(=O)[C@H](CCCCN)NC(=O)[C@H](CCCNC(=N)N)NC(=O)[C@H](CC(N)=O)NC(=O)[C@H](CCSC)NC2=O)C(=O)N[C@@H](CCCCN)C(=O)N4)NC(=O)[C@H](CCC(=O)O)NC(=O)[C@@H]2CCCN2C(=O)[C@H](CO)NC(=O)CNC(=O)[C@H](C(C)C)NC1=O)C(=O)N[C@@H](CCCNC(=N)N)C(=O)N[C@@H](C)C(=O)N[C@@H](CCC(N)=O)C(=O)NCC(=O)N3
In the case of B1, the koff (hKv1.3 channel [4]) is reported as ~0.00026 s⁻¹, the Kd (hKv1.3 channel [5]) is reported as 2.9 pM and the Kd (hKv1.3 channel [6]) is reported as < 3 pM. The “selectivity for hKv1.3 over mKv1.1” value (mKv1.1 channel) was ≥ 10000 fold, the “selectivity for hKv1.3 over hKv1.2” value (hKv1.2 channel) was ≥ 1500 fold and the remaining current fraction (RCF) at 10 nM Vm24 (hKv1.2 [7]) was 0.54 RCF. The remaining current fraction (RCF) at 10 nM Vm24 [8] was 0.8 RCF, the remaining current fraction (RCF) of whole-cell hKv1.3 current at 10 nM Vm24 (hKv1.3 channels [9]) was 0.01 RCF and the selectivity for hKv1.3 over hIKCa1 [10] was > 4500 fold.

B2: Vm23 (peptide)
peptide: AAAISCVGSKECLPKCKAQGCKSGKCMNKKCKCYC-OH
modifications: disulfide (positions not given here); also: four disulfide bridges, pairing not given here (assumed as in Vm24)
For B2, the blockage of the current at 10 nM Vm23 (hKv1.3 channels [11]) was 95%.
